One assay concerns the target T1, CD3ε on Jurkat T cells (human (endogenous in Jurkat), UniProt P07766).
T1 construct: CD3-ε as part of the TCR–CD3 complex at the cell surface; source: endogenous, on Jurkat T cells (TCR transductants)
Briefly: flow cytometry on cells; cells pre-incubated with increasing concentrations of UCHT1 Fab, then stained with fluorescent UCHT1 antibody. To be noted: one partner purified. In general terms: A flow cytometer gives signals particle by particle.

Assay [1] concerns the target T2, CD3-ε, full length, GFP2-fused (human, UniProt P07766).
T2 construct: CD3-ε, full length; source: CHO-S, lentiviral transduction, co-expressed with the other subunits; purified as the complex from LMNG-solubilised membranes (Strep-Tactin XT, SEC in GDN)
Briefly: cryo-EM structure; subunits co-expressed in CHO-S and purified as one complex in detergent; tenfold molar excess of UCHT1 Fab added before a final SEC in 10 mM HEPES pH 7.4, 150 mM NaCl, 0.02% GDN; 3.01 Å consensus map and 3.39 Å TM-focused map. The conditions noted are these: both partners purified.

T2 sequence (P07766 23-207): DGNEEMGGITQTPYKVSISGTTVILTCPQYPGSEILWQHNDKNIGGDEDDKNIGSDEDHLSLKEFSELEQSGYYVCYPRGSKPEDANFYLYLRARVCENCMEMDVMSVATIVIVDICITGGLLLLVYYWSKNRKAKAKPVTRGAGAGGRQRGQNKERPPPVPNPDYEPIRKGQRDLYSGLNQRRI
T1 sequence (P07766 23-207): as above

B1: Fab fragment of the anti-human CD3ε murine antibody UCHT1 (Fab, V domains shown)
VH: EVQLQQSGPELVKPGASMKISCKASGYSFTGYTMNWVKQSHGKNLEWMGLINPYKGVSTYNQKFKDKATLTVDKSSSTAYMELLSLTSEDSAVYYCARSGYYGDSDWYFDVWGQGTTLTVFS
VL: DIQMTQTTSSLSASLGDRVTISCRASQDIRNYLNWYQQKPDGTVKLLIYYTSRLHSGVPSKFSGSGSGTDYSLTISNLEQEDIATYFCQQGNTLPWTFAGGTKLEIK
notes: VH domain of UCHT1; C-γ1 domain of murine IgG1, residues 1-103 of P01868-1; Vκ domain of UCHT1; murine constant kappa domain; Both chains were expressed under a modified cPTPRσ signal peptide ([residues removed], last two residues changed for a KpnI site); also called UCHT1 Fab; source: CHO-K1, lentiviral transduction, purified from culture supernatant (CaptureSelect C-tagXL, Superdex 200)
In the case of B1, the binding result (with CD3ε on Jurkat T cells; in assay [1]) was “binds” each time.

For the origin of these results see paper PMC11485255, “Structure of a fully assembled γδ T cell antigen receptor” (Nature, 2024).
